# PMC3906126
# Legend:
# Experiment in all cases: ITC
# [1] = target: WW2W domain of WWOX (WW2 domain, residues 57–91, with the Y85W substitution) (human) (UniProt Q9NZC7)
# [2] = target: WW1 domain of WWOX (residues 16–50) (human) (UniProt Q9NZC7)
# [3] = target: WW1–WW2 tandem module of WWOX (residues 16–91) (human) (UniProt Q9NZC7)
# Sequence of WW1–WW2 tandem module of WWOX (residues 16–91) (human) (Q9NZC7 16-91): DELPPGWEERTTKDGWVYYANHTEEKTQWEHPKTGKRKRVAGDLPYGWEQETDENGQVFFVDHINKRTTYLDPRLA
# Sequence of WW1 domain of WWOX (residues 16–50) (human) (Q9NZC7 16-50): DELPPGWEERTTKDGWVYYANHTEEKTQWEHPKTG
# Sequence of WW2W domain of WWOX (WW2 domain, residues 57–91, with the Y85W substitution) (human) (Q9NZC7 57-91 Y85W): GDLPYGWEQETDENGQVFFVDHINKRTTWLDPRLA
Substance,Kd [1],dH [1],Kd [2],dH [2],Kd [3]
PY3_A−2 (ErbB4_PY3 peptide with alanine at position −2),–,–,151 µM,-6.19 kcal/mol,–
PY3_A−1 (ErbB4_PY3 peptide with alanine at position −1),–,–,161 µM,-3.33 kcal/mol,–
PY3_A−3 (ErbB4_PY3 peptide with alanine at position −3),–,–,113 µM,-3.67 kcal/mol,–
PY3_A+4 (ErbB4_PY3 peptide with alanine at position +4),–,–,275 µM,-4.02 kcal/mol,–

# Second part, the substance after the results:
Kd [1],dH [1],Kd [2],dH [2],Kd [3],Substance
54 µM,-4.15 kcal/mol,144 µM,-6.21 kcal/mol,68 µM,ErbB4_PY3 peptide (12-mer spanning the PY3 PPXY motif of the ICD of ErbB4)
–,–,135 µM,-4.78 kcal/mol,–,PY3_A+6 (ErbB4_PY3 peptide with alanine at position +6)
–,–,287 µM,-3.63 kcal/mol,–,PY3_A+2 (ErbB4_PY3 peptide with alanine at position +2)
–,–,157 µM,-11.4 kcal/mol,–,PY3_A+5 (ErbB4_PY3 peptide with alanine at position +5)
